This note sets out measurements from paper PMC10681739, “High-throughput data and modeling reveal insights into the mechanisms of cooperative DNA-binding by transcription factor proteins”.

The data set has as its target RUNX1 (Homo sapiens, UniProt Q01196). Kind of data set: gcPBM; 2 nM RUNX1. The settings on record: tags: N-terminal GST (pDEST15), kept (PMC6008103); label: surface-attached array probe.

Chain of RUNX1 (Q01196 whole entry): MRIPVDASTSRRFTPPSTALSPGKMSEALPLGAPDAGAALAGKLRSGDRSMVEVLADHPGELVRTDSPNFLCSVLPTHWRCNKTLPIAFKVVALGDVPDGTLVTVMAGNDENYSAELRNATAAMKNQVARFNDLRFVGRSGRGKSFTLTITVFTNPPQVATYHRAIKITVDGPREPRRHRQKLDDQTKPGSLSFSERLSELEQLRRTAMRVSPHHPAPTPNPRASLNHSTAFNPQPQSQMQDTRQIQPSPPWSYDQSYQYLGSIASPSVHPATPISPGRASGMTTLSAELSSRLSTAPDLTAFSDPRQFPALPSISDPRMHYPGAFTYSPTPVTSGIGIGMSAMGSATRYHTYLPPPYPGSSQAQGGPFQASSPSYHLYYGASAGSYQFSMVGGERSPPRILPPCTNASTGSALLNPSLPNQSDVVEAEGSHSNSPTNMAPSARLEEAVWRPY

B1: Table S3 B row 3999 (dsDNA)
DNA 1: ATGGAAATGTGGTTAAGAACTCCCTCTTTTACTAGA
DNA 2: TCTAGTAAAAGAGGGAGTTCTTAACCACATTTCCAT
Turning to B1, the binding signal is 2760 PBM fluorescence, median of replicate spots.

B2: Table S3 B row 878 (dsDNA)
DNA 1: CCCTTTGTGGTCACAAAAACATGTCCTAGTTGAGAT
DNA 2: ATCTCAACTAGGACATGTTTTTGTGACCACAAAGGG
As to B2, the binding signal is 3830 PBM fluorescence, median of replicate spots.

B3: Table S3 B row 646 (dsDNA)
DNA 1: GCTCAAACAATAACCACAACACTTCATGCCTCTCTC
DNA 2: GAGAGAGGCATGAAGTGTTGTGGTTATTGTTTGAGC
For B3, the binding signal is 5040 PBM fluorescence, median of replicate spots.

B4: Table S3 B row 4026 (dsDNA)
DNA 1: CCTCCTGTGGTTAGTTCCTGCCCGATCAGGCAGGAG
DNA 2: CTCCTGCCTGATCGGGCAGGAACTAACCACAGGAGG
Consider B4, for which the binding signal was 4260 PBM fluorescence, median of replicate spots.

B5: Table S3 B row 1934 (dsDNA)
DNA 1: TCCTCCCCCAACCGCACCCTCAGCTTCATGTTTCAG
DNA 2: CTGAAACATGAAGCTGAGGGTGCGGTTGGGGGAGGA
Consider B5, for which the binding signal is 3950 PBM fluorescence, median of replicate spots.

B6: Table S3 B row 2775 (dsDNA)
DNA 1: CCTGTTTCGTGCCATCTGCCCTTCCTTTGTGGTCAA
DNA 2: TTGACCACAAAGGAAGGGCAGATGGCACGAAACAGG
Take B6: the binding signal was 2610 PBM fluorescence, median of replicate spots.

B7: Table S3 B row 3915 (dsDNA)
DNA 1: CACCTGACCACAAGGCACACGAAGATCCTTATCACA
DNA 2: TGTGATAAGGATCTTCGTGTGCCTTGTGGTCAGGTG
On to B7, for which the binding signal is 5610 PBM fluorescence, median of replicate spots.

B8: Table S3 B row 2682 (dsDNA)
DNA 1: TGGAAACCACAAGTTATTCCCTGCAAGCCGTAAGCA
DNA 2: TGCTTACGGCTTGCAGGGAATAACTTGTGGTTTCCA
For the molecule B8, the binding signal was 4300 PBM fluorescence, median of replicate spots.

B9: Table S3 B row 1201 (dsDNA)
DNA 1: GTGGGCTGTGGTTAGGAGACATGAAGGAGAATGCCA
DNA 2: TGGCATTCTCCTTCATGTCTCCTAACCACAGCCCAC
On to B9, for which the binding signal was 4150 PBM fluorescence, median of replicate spots.

B10: Table S3 B row 905 (dsDNA)
DNA 1: CCTCTGCGGTCTCTGCAGCCGTTTGCATTTGCTGAA
DNA 2: TTCAGCAAATGCAAACGGCTGCAGAGACCGCAGAGG
Turning to B10, the binding signal was 4320 PBM fluorescence, median of replicate spots.

B11: Table S3 B row 1822 (dsDNA)
DNA 1: TCCTATTTTTACCGCAGTTGCACAGGCAATGAGGCG
DNA 2: CGCCTCATTGCCTGTGCAACTGCGGTAAAAATAGGA
Turning to B11, the binding signal is 3180 PBM fluorescence, median of replicate spots.

B12: Table S3 B row 1676 (dsDNA)
DNA 1: GTAAAATGCGGTCGGGTAGAAACCTACTTTCGGTCC
DNA 2: GGACCGAAAGTAGGTTTCTACCCGACCGCATTTTAC
On to B12, for which the binding signal was 2480 PBM fluorescence, median of replicate spots.

B13: Table S3 B row 2319 (dsDNA)
DNA 1: CCCCGGCAGAAACCGCACCCCACTCCCCATAGCCAC
DNA 2: GTGGCTATGGGGAGTGGGGTGCGGTTTCTGCCGGGG
In the case of B13, the binding signal is 4670 PBM fluorescence, median of replicate spots.

B14: Table S3 B row 2281 (dsDNA)
DNA 1: ACCCCAAACCCACAAACCCACCTGAAGGAACCAACT
DNA 2: AGTTGGTTCCTTCAGGTGGGTTTGTGGGTTTGGGGT
Regarding B14, the binding signal was 5110 PBM fluorescence, median of replicate spots.

B15: Table S3 B row 1215 (dsDNA)
DNA 1: ACAGAGAAACCACAGCCCTGAGCCTCTTCATGACAT
DNA 2: ATGTCATGAAGAGGCTCAGGGCTGTGGTTTCTCTGT
For the molecule B15, the binding signal was 4430 PBM fluorescence, median of replicate spots.

B16: Table S3 B row 2861 (dsDNA)
DNA 1: ACGATCCAACCGCATTCACCCCGTAAGCCGCTTCCA
DNA 2: TGGAAGCGGCTTACGGGGTGAATGCGGTTGGATCGT
With B16, the binding signal was 4500 PBM fluorescence, median of replicate spots.

B17: Table S3 B row 2615 (dsDNA)
DNA 1: ACCCCCCAACCACAAGGCCCGTTTGCTGCCTCCCCA
DNA 2: TGGGGAGGCAGCAAACGGGCCTTGTGGTTGGGGGGT
In the case of B17, the binding signal is 2690 PBM fluorescence, median of replicate spots.

B18: Table S3 B row 2419 (dsDNA)
DNA 1: GGCTACAGCAACCGCAAGGCATCACGGAGGTCGTAG
DNA 2: CTACGACCTCCGTGATGCCTTGCGGTTGCTGTAGCC
For B18, the binding signal was 5220 PBM fluorescence, median of replicate spots.

B19: Table S3 B row 75 (dsDNA)
DNA 1: GCGTCCTTTGCGGTCTTTTGTCCACGTTCGGGTCAA
DNA 2: TTGACCCGAACGTGGACAAAAGACCGCAAAGGACGC
Consider B19, for which the binding signal is 4170 PBM fluorescence, median of replicate spots.

B20: Table S3 B row 2125 (dsDNA)
DNA 1: CAGGCTGCGGTTGAAATGCATCAGCTCTTTCGTGCC
DNA 2: GGCACGAAAGAGCTGATGCATTTCAACCGCAGCCTG
As to B20, the binding signal is 4740 PBM fluorescence, median of replicate spots.

B21: Table S3 B row 2109 (dsDNA)
DNA 1: ATGTCAGTAACCACAAACGAGCCACAGCATAAGAAC
DNA 2: GTTCTTATGCTGTGGCTCGTTTGTGGTTACTGACAT
With B21, the binding signal was 5490 PBM fluorescence, median of replicate spots.

B22: Table S3 B row 2863 (dsDNA)
DNA 1: CCGCCCTGTGGTTTTGGAGCCCTTGCTCCCGGCGCA
DNA 2: TGCGCCGGGAGCAAGGGCTCCAAAACCACAGGGCGG
For B22, the binding signal is 4640 PBM fluorescence, median of replicate spots.

B23: Table S3 B row 1841 (dsDNA)
DNA 1: CTGCCCATCGCGGTTAACTTTTGCGCCTCCTTAAAG
DNA 2: CTTTAAGGAGGCGCAAAAGTTAACCGCGATGGGCAG
As for B23, the binding signal is 3570 PBM fluorescence, median of replicate spots.

B24: Table S3 B row 2350 (dsDNA)
DNA 1: CCTGTCTTGTGGTTAAGTCAAGGCAGGCAATGCTTT
DNA 2: AAAGCATTGCCTGCCTTGACTTAACCACAAGACAGG
Consider B24, for which the binding signal was 5190 PBM fluorescence, median of replicate spots.

B25: Table S3 B row 2473 (dsDNA)
DNA 1: CCCACCCAGCAAGCCGTCCTAACCACAACAGCCCTC
DNA 2: GAGGGCTGTTGTGGTTAGGACGGCTTGCTGGGTGGG
Take B25: the binding signal was 5020 PBM fluorescence, median of replicate spots.

B26: Table S3 B row 1266 (dsDNA)
DNA 1: AGAAAACCACATTCAATTCTCTTTACACAGGGTGTT
DNA 2: AACACCCTGTGTAAAGAGAATTGAATGTGGTTTTCT
For the molecule B26, the binding signal was 3040 PBM fluorescence, median of replicate spots.

B27: Table S3 B row 2767 (dsDNA)
DNA 1: CTTGCGGTCCCATCTTGCTTTTTTCTTGCGCTTTCC
DNA 2: GGAAAGCGCAAGAAAAAAGCAAGATGGGACCGCAAG
Take B27: the binding signal is 2370 PBM fluorescence, median of replicate spots.

B28: Table S3 B row 991 (dsDNA)
DNA 1: TCCCTTACCTTCATGCTGCCACCAAACCACCAAACC
DNA 2: GGTTTGGTGGTTTGGTGGCAGCATGAAGGTAAGGGA
Turning to B28, the binding signal is 2540 PBM fluorescence, median of replicate spots.

B29: Table S3 B row 3703 (dsDNA)
DNA 1: GGAACACTGCGGTCGGGGCGAGGGAGCTGCCGGGGA
DNA 2: TCCCCGGCAGCTCCCTCGCCCCGACCGCAGTGTTCC
With B29, the binding signal is 4100 PBM fluorescence, median of replicate spots.

B30: Table S3 B row 3962 (dsDNA)
DNA 1: GCCCCTCTGCGGTCGCAGCCCCGCCGGGAGTGTGGC
DNA 2: GCCACACTCCCGGCGGGGCTGCGACCGCAGAGGGGC
With B30, the binding signal was 4660 PBM fluorescence, median of replicate spots.

B31: Table S3 B row 1118 (dsDNA)
DNA 1: CTCCCACCATCCACCGCAGCCACTTTCGCCCGTCCT
DNA 2: AGGACGGGCGAAAGTGGCTGCGGTGGATGGTGGGAG
In the case of B31, the binding signal is 3290 PBM fluorescence, median of replicate spots.

B32: Table S3 B row 934 (dsDNA)
DNA 1: TCAGAACCGCAGACGTGGCCCTGCGTGGCTTCAGGC
DNA 2: GCCTGAAGCCACGCAGGGCCACGTCTGCGGTTCTGA
As to B32, the binding signal is 4860 PBM fluorescence, median of replicate spots.

B33: Table S3 B row 1232 (dsDNA)
DNA 1: CTCCTCTGTGGTCAGCCATCAATTCATCCCAGCCCG
DNA 2: CGGGCTGGGATGAATTGATGGCTGACCACAGAGGAG
B33: the binding signal is 4200 PBM fluorescence, median of replicate spots.

B34: Table S3 B row 2453 (dsDNA)
DNA 1: GCCCTGTGGTTTTCTGAGGCCCCCGAGGAGGAGGTG
DNA 2: CACCTCCTCCTCGGGGGCCTCAGAAAACCACAGGGC
For the molecule B34, the binding signal is 5060 PBM fluorescence, median of replicate spots.

B35: Table S3 B row 1984 (dsDNA)
DNA 1: TAAAACCAAACCACAGATGACACATTGCCTTTCCAC
DNA 2: GTGGAAAGGCAATGTGTCATCTGTGGTTTGGTTTTA
Consider B35, for which the binding signal is 2350 PBM fluorescence, median of replicate spots.

B36: Table S3 B row 1484 (dsDNA)
DNA 1: GTGAAGACCGCAAGTTGGGGCAGATGGCTCCCGACT
DNA 2: AGTCGGGAGCCATCTGCCCCAACTTGCGGTCTTCAC
Take B36: the binding signal is 3440 PBM fluorescence, median of replicate spots.

B37: Table S3 B row 533 (dsDNA)
DNA 1: AGTTGTGAAACCACAAAACACAGAAAGGAGGTGGTC
DNA 2: GACCACCTCCTTTCTGTGTTTTGTGGTTTCACAACT
Turning to B37, the binding signal is 5640 PBM fluorescence, median of replicate spots.

B38: Table S3 B row 2874 (dsDNA)
DNA 1: TCAGTGCGGTCAGGGAGTCTGTACTGCCTGGATGGC
DNA 2: GCCATCCAGGCAGTACAGACTCCCTGACCGCACTGA
With B38, the binding signal is 5600 PBM fluorescence, median of replicate spots.

B39: Table S3 B row 1458 (dsDNA)
DNA 1: TTCTCCACTGCCTTCTTTACCTCACCTACCACATAA
DNA 2: TTATGTGGTAGGTGAGGTAAAGAAGGCAGTGGAGAA
As to B39, the binding signal is 5560 PBM fluorescence, median of replicate spots.

B40: Table S3 B row 1304 (dsDNA)
DNA 1: TCTGCTGCTTCTGTGGTTTACGGAATTTGTAACCCT
DNA 2: AGGGTTACAAATTCCGTAAACCACAGAAGCAGCAGA
B40: the binding signal was 5370 PBM fluorescence, median of replicate spots.

B41: Table S3 B row 708 (dsDNA)
DNA 1: CTCCTGCGGTTGCCAGGCAACCGGCCCCGGGAGTTG
DNA 2: CAACTCCCGGGGCCGGTTGCCTGGCAACCGCAGGAG
With B41, the binding signal was 3720 PBM fluorescence, median of replicate spots.

B42: Table S3 B row 1939 (dsDNA)
DNA 1: TTGGTTCTGTGGTTTCAGGTGTGAGTTCCAGTGTGC
DNA 2: GCACACTGGAACTCACACCTGAAACCACAGAACCAA
For the molecule B42, the binding signal was 2910 PBM fluorescence, median of replicate spots.
